Measurements taken from paper PMC5855643.

Key:
[1] = target: FcγRIIIa receptor, V158 (high affinity) variant
[2] = target: FcγRIIIa receptor, F158 (low affinity) variant (UniProt P08637)

Substance: Rituxan^® (rituximab, innovator product) (antibody)
- EC50 of the ADCC reporter bioassay, Daudi target cells, V/V 158 variant effector cells [1]: 12 ng/mL
- EC50 of the ADCC reporter bioassay, Wil2-S target cells, V/V 158 variant effector cells [1]: 15.7 ng/mL
- EC50 of the ADCC reporter bioassay, Daudi target cells, F/F 158 variant effector cells [2]: 22 ng/mL
- EC50 of the ADCC reporter bioassay, Wil2-S target cells, F/F 158 variant effector cells [2]: 18 ng/mL

Substance: reglycosylated plant-made rituximab (NbRTX^A2G2) (antibody)
- EC50 of the ADCC reporter bioassay, Daudi target cells, V/V 158 variant effector cells [1]: 2.9 ng/mL
- EC50 of the ADCC reporter bioassay, Wil2-S target cells, V/V 158 variant effector cells [1]: 2.7 ng/mL
- EC50 of the ADCC reporter bioassay, Daudi target cells, F/F 158 variant effector cells [2]: 7 ng/mL
- EC50 of the ADCC reporter bioassay, Wil2-S target cells, F/F 158 variant effector cells [2]: 4.4 ng/mL
